Test results: article PMC10374538, “Ion selectivity and rotor coupling of the Vibrio flagellar sodium-driven stator unit” (Nature Communications, 2023)

B1: Vibrio alginolyticus PomB, full length, non-cleaved (without protease insertion) (natural protein)
chain: MDDEDNKCDCPPPGLPLWMGTFADLMSLLMCFFVLLLSFSEMDVLKFKQIAGSMKFAFGVQNQLEVKDIPKGTSIIAQEFRPGRPEPTPIDVIMQQTMDITQQTLEFHEGESDRAGGTKRDEGKLTGGQSPATSTQNNESAEADMQQQQSKEMSQEMETLMESIKKALEREIEQGAIEVENLGQQIVIRMREKGAFPEGSAFLQPKFRPLVRQIAELVKDVPGIVRVSGHTDNRPLDSELYRSNWDLSSQRAVSVAQEMEKVRGFSHQRLRVRGMADTEPLLPNDSDDNRALNRRVEISIMQGEPLYSEEVPVIQ
notes: That the tag is on PomB is surmised; Only a 6.3 Å map (EMD-16214) was deposited, no model; also called full length VaPomAB
B2: Vibrio alginolyticus PomB without the peptidoglycan binding domain (PGB removed by HRV 3C protease at a site inserted between Gln95 and Gln96) (domain or fragment)
chain: MDDEDNKCDCPPPGLPLWMGTFADLMSLLMCFFVLLLSFSEMDVLKFKQIAGSMKFAFGVQNQLEVKDIPKGTSIIAQEFRPGRPEPTPIDVIMQGTLEVLFQ
notes: PomB of Vibrio alginolyticus (ATCC 17749), from the N-terminus to Gln95 (TM helix, plug motif and what follows, up to the inserted protease site); That the twin-Strep-tag sat at the C-terminus of PomB and left with the PGB domain is surmised; also called VaPomB; VaPomAB without PomB PGB; not shown: twin-Strep-tag, C-terminal, cleaved

What was measured:
[1] = biological target: the molecule itself; experiment: cryo-EM structure; full length, non-cleaved VaPomAB reconstituted into saposin nanodiscs with E. coli polar lipids; 6.3 Å map
[2] = biological target: the molecule itself; experiment: cryo-EM structure; VaPomAB (PomB PGB removed) co-expressed and co-purified, in LMNG detergent, 20 mM HEPES pH 7.5, 300 mM NaCl, 0.0125% CHAPSO added; ~2.5 Å

Protein	binding result [1]	stoichiometry N [2]
B1	binds	
B2		2
